Measurements published in publication PMC8472802, “Agaricales Mushroom Lignin Peroxidase: From Structure–Function to Degradative Capabilities” (Antioxidants, 2021).

B1: ApeLiP (LiP of Agrocybe pediades) (Agrocybe pediades) (protein)
chain: AVTCPTGQTTANEACCVLFPVIDLLQEELFDGGECGEEAHAALRLAFHDAIGFSKNGGKGGGADGSILAFHQTETTYAANSGIEDIITAQLPIFQKTNLTAGDFVHLAAAIGTGNCPGSPQLAYSFGRPPPVAPAPDGTVPEPTDSVTDILARFSEAGFVTAEVIWLLASHSIAAASKIDTSAPRTPFDSTPALFDTQFYLETILNGTLLPGDGGAHTGEVLSPIAGEMRLQSDFAFAQDPRTACLWQEPINDQAFIQGKFFAAMKKLQVLGQTGLTDCSDVIPVPASLPGPITFPAGFSEADVISACTATPLPSLATIAGPKPTIPPVPL
B2: ApeLiP (LiP of Agrocybe pediades) (Agrocybe pediades; W166A) (protein)
chain: AVTCPTGQTTANEACCVLFPVIDLLQEELFDGGECGEEAHAALRLAFHDAIGFSKNGGKGGGADGSILAFHQTETTYAANSGIEDIITAQLPIFQKTNLTAGDFVHLAAAIGTGNCPGSPQLAYSFGRPPPVAPAPDGTVPEPTDSVTDILARFSEAGFVTAEVIALLASHSIAAASKIDTSAPRTPFDSTPALFDTQFYLETILNGTLLPGDGGAHTGEVLSPIAGEMRLQSDFAFAQDPRTACLWQEPINDQAFIQGKFFAAMKKLQVLGQTGLTDCSDVIPVPASLPGPITFPAGFSEADVISACTATPLPSLATIAGPKPTIPPVPL

Legend:
Assay in all cases: purified protein
Format in all cases: biochemical, Agrocybe pediades
purified protein [1] = substrate: COc1ccc(CO)cc1OC; details: pH 4.0, 25 °C, 0.4 mM H2O2, fit with substrate inhibition
purified protein [2] = substrate: Nc1c(N=Nc2ccc(S(=O)(=O)CCOS(=O)(=O)O)cc2)c(S(=O)(=O)O)cc2cc(S(=O)(=O)O)c(N=Nc3ccc(S(=O)(=O)CCOS(=O)(=O)O)cc3)c(O)c12; details: Hill n = 2.11 ± 0.30, pH 3.0, 25 °C, 0.4 mM H2O2
purified protein [3] = substrate: COc1cccc(OC)c1O
purified protein [4] = substrate: CCn1c(=NN=c2sc3cc(S(=O)(=O)O)ccc3n2CC)sc2cc(S(=O)(=O)O)ccc21
[5] = pH 3.0, 25 °C, 0.4 mM H2O2, fit with substrate inhibition
[6] = high-efficiency site of biphasic kinetics, Hill n = 1.62 ± 0.12, 100 mM sodium tartrate pH 3.0, 25 °C, 0.4 mM H2O2
[7] = pH 8.0, 25 °C, 1 mM H2O2, Michaelis-Menten fit despite substrate/product inhibition, no activity at pH 3
[8] = low-efficiency site (only site left), Hill n = 1.62 ± 0.28, strong substrate inhibition, pH 3.0, 25 °C, 1 mM H2O2

Row | Protein | Km (purified protein [1]) | kcat (purified protein [1]) | kcat/Km (purified protein [1]) | K0.5 (purified protein [2]) | kcat (purified protein [2]) | kcat/Km (purified protein [2]) | Km (purified protein [3]; [5]) | kcat (purified protein [3]; [5]) | kcat/Km (purified protein [3]; [5]) | K0.5 (purified protein [4]; [6]) | kcat (purified protein [4]; [6]) | kcat/Km (purified protein [4]; [6]) | Km (purified protein [3]; [7]) | kcat (purified protein [3]; [7]) | kcat/Km (purified protein [3]; [7]) | K0.5 (purified protein [4]; [8]) | kcat (purified protein [4]; [8]) | kcat/Km (purified protein [4]; [8])
1 | B1 | (29.6 ± 4.6) × 10^3 µM | 4.3 ± 0.3 s⁻¹ | 150 ± 30 M⁻¹ s⁻¹ | 14 ± 1.4 µM | 21 ± 1.5 s⁻¹ | 1.54e+06 ± 115000 M⁻¹ s⁻¹ | 37 ± 5.6 µM | 68.6 ± 2.8 s⁻¹ | 1.91e+06 ± 310000 M⁻¹ s⁻¹ | 8.1 ± 0.6 µM | 42 ± 1.8 s⁻¹ | 5130 ± 460 s⁻¹ mM⁻¹ |  |  |  |  |  | 
2 | B2 |  |  |  |  |  |  |  |  |  |  |  |  | 49 ± 8.2 µM | 6.1 ± 0.27 s⁻¹ | 125000 ± 22000 M⁻¹ s⁻¹ | 1150 ± 190 µM | 117 ± 10 ^c s^-1 | 102 ± 19 ^c s^-1·mM^-1
